Assay results published in the domain aggregation screens of Martell et al. (2025).

Assay: soluble fraction after stress (log2 fold change); higher = more stays soluble; pooled small domains, quantitative proteomics
Settings: stress: 75 degC
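Further: 20 min heating vs room temperature control held 20 min.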

Row | Sequence | soluble fraction (log2)
1 | HMGVEKHLRITGTSTVSWKDAIVQAVAEASKTIDYLSNVKIIEQRARIDGKKLVEYFVDLDLSFVID | -0.23
2 | HMGVGITAPLAGNIFKIVVQPGDVVASGDVVLVLEAMKMETEIRAASGGTVSQVLVREGDAVDAGHTLITL | -2.85
3 | HMGVGVTAPLAGNIFKIVKQPGDVVASGDVVLILEAMKMETEIRAAAGGTVKQVLVREGDAVDAGHTLMTL | -1.38
4 | HMGVHSVVPDIKNKHYGEAKAILAANGLSIEISDSIYDRSVAPGTVVESWPKAGAIVKGDRAVFVTLTAF | -1.61
5 | HMGVMTGAEFVGNTVASVERNLIIDTLKHTMGNRTTAANILGISIRTLRNKLKQYQNEGFDIPE | -1.11
6 | HMGVPELHKGEIVQAVVEKVLGEGLLRVNLKGMTVEAATSLRLNPGQQLLLRSEGIENGRQVLR | 0.275
7 | HMGVQKGKDNALAVQQWIAERDATGDFGEYERRGIINRSALFDELGIPRSSMGSNDQIRQMIEAADVRWF | -0.47
8 | HMGVREIIVQFLEQFDKPKSVQEIVEYVLRYRNTTENSIRSTMYSGSQFRQFDNGYFGLSDKSYPNEYIYA | -1.49
9 | HMGVRLAPEVDRIPYGQMHPNLKKVKDLYEASYKAYVQALSSGNQALAKEKLEEFQSTKARYQRALSAYT | 0.305
10 | HMGVRVEVDAVTPPGAMASGSVVFSDGESKKWSVDQFGRLAMTGGAPDYKPSDQDVMEFQQQLEQSL | 0.125
11 | HMGVSAGQVRGLIRNLIAGEDKSKPLSDLALERELEKREIRISRRTVAKYRAELGIPNSDQRRYLP | -1.68
12 | HMGVSLKEIQENLSLIDDAAQKLASGQGTVDDAVGMGNAGKDIYDNIEGYVSSPKEFINGVLSSV | -0.0252
13 | HMGVSVNVQPAILDWAMQKAQMGNAGSSVIEMIAKWISGEKAPTFNQIEDVSKKISIPFGFFFLKEPPIE | -2.05
14 | HMGVTGYPNPTREHITWDDARRIEVWNAYGVPVADLRFARGVLDVAGWPVGTYVARIDGGRSVRFVVI | -1.05
15 | HMGVTVDEVHRNFESGMNVVHKKFGAGVVDSFDEGKIRINFDGVIKVFIADVLINSGMLESVSYTH | -0.832
16 | HMGWEDLVGKTAVVKVALAPVGMVFFRGEFWSAISETGRIEPGEEVTISRIDGLKLYVTKKRIM | -3.89
17 | HMGWEPTPVLVAARDISGGTVLDQDMLRVEAIPSRLVTPSIVRSDLLASVQDAKLLLPMKQGDLLNFNMLQ | -0.0591
18 | HMGWVMLVIMSRGASEAQINAVVEKIRAAGLTEHLSKGIERTIIGAIGEERKLEPEVFELLPGVEQALHIV | -2.2
19 | HMGYDSYDADTIPKLKIGSIVEHPKFGEGSIISKAGAEVTIAFKIKGVKKINLEYTSIKVLK | -1.67
20 | HMGYGEQEQEAQKYLALHALMSQDPTLAKMYQAPNQYKLMSHVMEQNGIKNVNDYLTDPQQLP | -0.157
21 | HMGYKDIDKLSGVDLAIYRFIVEHDEQIPYMRVRELARGAHVSNSSVMRFIRKIGYDSFPEFKVSLRS | -0.0854
22 | HMGYPGLGSIGSKPLGDLLFQSKLFVKTKREFAEFKMANNNIVWGRRTQYLVRNYPLSVMEVFL | -0.0522
23 | HMHAGQIISQKIKESGISISHVAKHLKVQRATLYNLFEREVWPAHRLRTIEALLHIDLSDLYP | -2.61
24 | HMHANAALTPRQRLRLAQKIVDEEWTVAAAADYFRVSWPTAAKWARRYVELGEAGMADRSSRP | -2.55
25 | HMHDEKHHQLANEIARKWAALRGNRDFAAADELKNLAAEAGVELQATKQAVGQGALAKLKENFDPVKLEAL | 0.192
26 | HMHDLDALTGLSGEARSKVYEEGSVFVAGEMWSAKSDAVIPAGSSIRVVRREGFILVVEKDS | -2.48
27 | HMHDYTTIIGVIELRLNKISYDNVQKRYRIGRSGISLIMERYRDSGLSLDDLKQMPAEKVVNLIYPKD | -2.88
28 | HMHDYYDSIDAVTHDKSYESNLVFALKLGYTETQLQKALLKLGKKAREDQILEELIRIQKSSKA | -0.362

Row | Sequence | soluble fraction (log2)
29 | HMHEGNWTLPNPMPIGTTLTLPEHSRLYISNLAGQRVFETSATSVEIPLLPKGTYLLRLETMNGHTTRKIL | -0.106
30 | HMHELKIEKVAEAPNGAMRLLLSDGSEWVLGVKSWNRLNLSLEKILDVNVLRALEKESQYHLLRTKALEL | -1.39
31 | HMHFIMEYRIRAYVDELFESAPRTQRAYELKIELTQNLIDKYYALVSEGKSEQDAYNLTVMSIGDVREL | -3.01
32 | HMHGEAVVVPNVKGLPMRQAENEIYKQSLKAVAIDSSYVKGMPPGAILEQNPAGGSKVKKGRTVYLTINMD | -0.268
33 | HMHGERVVTAGQTVRVVFTSNGLQVSSEGKALAAGAVGDDIQVRAASGKVIRGTVTGPGVVQV | 0.233
34 | HMHGLNQNKPIPIADIVNSVNNYLTSLGKKTITDNSVLSNLKKAAKYLNTAYNLVLRPDSLNMTVTLL | 0.323
35 | HMHIMINPDQLSPEQIQSIRTWAEEGLDLNAIQKRLHEDLNIKLTFMDTRFLLQDLDIRIRQPEPEPEAEQ | -0.208
36 | HMHINLEGLKKIDFRKKIGFLFGSEASGLSNKEVSYANYTLQIPTNINFKSLNLSHSLIIIAQFISSLLNS | -0.55
37 | HMHKIRRQTKITKSLLDQIEGIGSSRKKALLNHFGSAKAVGEAGETDLGTVKGISNSLAKKIYDFFHAT | -0.545
38 | HMHLDIGQLVQRILADIQVGKLADGQRKLPAEPVLMERYQVTRYTLRQALKQLSNMGYTYQMHGIGTFVRQ | -1.79
39 | HMHLKDEHGLTPKQRAFADEYVITLNATVSYKKIYSVKRDSVASTNGSRLLGNANVKAYIDKRLEE | -2.26
40 | HMHLKRQEAINLGAYLLGAELRIHRLSLEELGSERIDEMLAAINYKTLDDLLADIGLGNRPARFVARQLG | -1.86
41 | HMHLLGASIAAYRKKAGMTQEDLGRALFVSGQAVSRWERGGTPDSDMLPKIADVLGISLDTLFGRS | -1.57
42 | HMHLRYTYIYDNENRVTSKEASKWDSTQEAWVPYFKMNVSYVNNEVELSYARWNSKSNAYDSSIKKTI | -2.54
43 | HMHLTNIPKGFTPSFDTKQWIVEEFGERYNYDNELKIFINHYRASGTTKSDWQYAFRSWLLRAKKFT | -2.83
44 | HMHLTRYLHTMIRAANLDDTLDFFVEKLGLIEAYRYSNEAGRFTLVFLSAPDDLESAQSRQAPLVEITYN | -1.32
45 | HMHLYDMYNLTEKEISIIRLIANGLNNKEISQELFLSEGTIKNNITNILAKLELRDRTQLAIFAFKNKIVI | -3.6
46 | HMHMELHEKIRLARELNKWSQEEVAEKLEMSPSGYAKIERGETALNIPRLEQIAEIFNIDIWELVKA | -1.04
47 | HMHMHTADDFKQLAKHTSNGRLRTRYLALYHFKKGETRTQIAAYLGVARGSVNTWVSNYLAYGLEGLQS | -2.53
48 | HMHMIDDYLARIGQLIRDARQHRGWTQVQLAEALGTSQSAVNRIERGNQNISLEMIARIGEALGSEIVSLG | -2.24
49 | HMHMKTIEWDSLVLIMYKDMKYLKRINEGQSFHGKGGMLNYADLIGKTYGIRFGQYEIFEPSLEDIVMYG | -0.0889
50 | HMHMSKKLADSISALRKKNGLSQEQLAEKIGISRQTVSNWERGIATPDVETLNLISKLFDEDLSVMING | -0.073
51 | HMHNISQTGRRIAGMTQERWAEALDISVESVRLYESGRGMPSDDVATRMVEVSGAPVLGYWH | -0.458
52 | HMHNPSYDMSKDVDILVMKFRDYNNLTDDEARFLLDKAKDAYYNTGKEILSDNEYDTLEKSLGQE | -0.000671
53 | HMHPEPDPVLFIDGKEYPYDKLSELDETRVQSMTILPKKSAVKKYGDKYANRSIMEITLKKEN | 0.119
54 | HMHPNPLTEQEIAVLKGIAQGLSNQEIADQLYLSNGTVRNYVTNILSKLDAGNRTEAANIAKESGW | 0.00139
55 | HMHPSNQELTKVLAQGSELVLAQKYIEASQIFTRVIEIDQTWAEAWNKRATVFYLLQNYEASQKDIDEV | 0.0525
